Source: patent US20180362629A1 (ZOETIS BELGIUM S A, published 2018)
Substitutions are numbered along the chain they refer to.

Tests used:
recombinant canine β NGF [1] = molecular target: T1, recombinant canine β NGF (canine, UniProt Q29074 110-229 (pig entry)); assay: cell-based or functional assay
T1 chain: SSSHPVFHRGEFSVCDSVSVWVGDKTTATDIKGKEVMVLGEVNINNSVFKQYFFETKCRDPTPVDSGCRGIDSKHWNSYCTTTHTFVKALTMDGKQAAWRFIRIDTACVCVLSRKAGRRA

recombinant canine β NGF [2] = molecular target: T2, recombinant canine β NGF (canine, UniProt Q29074 110-229 (pig entry)); assay: cell-based or functional assay
T2 chain: T1 chain

recombinant canine β NGF [3] = molecular target: T2, recombinant canine β NGF; assay: SPR (Biacore T100), antibody captured on goat anti-canine IgG, canine NGF injected; Expt 2
Protocol: (§1) Purified mouse/canine chimeric antibodies and caninized antibodies were analyzed for affinity to canine NGF using a Biacore T100 instrument. Goat anti Canine IgG (Southern Biotech) was immobilized at 5000-10000 RU on a CM5 chip using an amine coupling procedure according to the manufacturer's instructions (Biacore). […] The association rate was monitored for 5 min and the dissociation rate was monitored for 10-20 min. The chip surface was regenerated using 50-75 ul 10 mM glycine pH 1.5 at a flow rate of 50-100 ul/min. Data was analyzed using Biaevaluation T100 software version 2.0.2, software, GE Healthcare Life Sciences (Piscataway, N.J.). Overall affinity parameters established for mouse/canine chimeric antibodies is summarized in Table 22 and for caninized antibodies in Table 23. […] The overall KDs of the mouse/canine anti-NGF mAbs range from about 1300 pM to 1.6 pM. […] The overall KDs of the caninized anti-NGF mAbs range from about 42 pM to 1.2 pM.

recombinant canine β NGF [4] = molecular target: T2, recombinant canine β NGF; assay: SPR (Biacore T100), antibody captured on goat anti-canine IgG, canine NGF injected; Average
Protocol: as §1

recombinant canine β NGF [5] = molecular target: T2, recombinant canine β NGF; assay: SPR (Biacore T100), antibody captured on goat anti-canine IgG, canine NGF injected; Expt 1
Protocol: as §1

B1: PR-1254981 (antibody, mouse IgG1, V domains shown)
VH: EVQLVESGGGAVKPGGSLTLSCAASGFTFSNHYMYWVRQTPEKRLEWVASISDGGAYTFYPDTVKGRFTISRDNVNNNLYLQMRHLKSEDTAMYYCTREESANNGFAFWGQGTLVTVSA
VL: DVLMTQTPLSLPVSLGDQASISCRSSQSILHSNGNTYLEWYLQKPGQSPNLLIYRVSNRFSGVPDRFSGSGSGTDFTLKISRVEAEDLGVYYCFQGAHVPFTFGSGTKLEIKR
Recombinant canine β NGF [1]
  PathHunter IC50 (441 pM canine NGF): < 1 nM
  SureFire cellular pERK IC50 (128 pM canine NGF): < 1 nM

B2: Mu81 Canine IgG1/k Chimera (antibody, V domains shown)
VH: B1 VH
VL: B1 VL
Recombinant canine β NGF [1]
  TF-1 cell proliferation potency (70 pM canine NGF): < 50 pM

B3: Mu77 Canine IgG1/k Chimera (antibody, V domains shown)
VH: EVQLQQSGAELVKPGASVKLSCTASGFNIKDTYIYWVKQRPEQGLEWIGRIDPANGNTIYASKFQGKASITADTSSNTAYMQLSSLTSGDTAVYYCAGYGYYAYWGQGTTLTVSS
VL: DVVLTQTPLSLPVNIGDQASISCKSTKSLLNGDGFTYLDWYLQKPGQSPQLLIYLVSNRFSGVPDRFSGSGSGTDFTLKISRVEAEDLGVYYCFESNYLFTFGSGTKLEMKR
Recombinant canine β NGF [1]
  TF-1 cell proliferation potency (70 pM canine NGF): < 50 pM

B4: PR-1254982 (antibody, mouse IgG1, V domains shown)
VH: QVQLKESGPGLVAPSQSLSITCTVSGFSLTGYNINWVRQPPGKGLEWLGMIWGYGDTDYNSALKSRLSISKDNSKSQVFLKMNSLQTDDTARYYCARDHYGGNDWYFDVWGTGTTVTVSS
VL: DIQMTQTTSSLSASLGDRVTITCRASQDITNYLNWYQQKPDGTVKLLIYYTSRLHSGVPSRFSGSGSGTDYSLTISNLDQEDIATYFCQQGKTLPRTFGGGTKLEIKR
Recombinant canine β NGF [1]
  PathHunter IC50 (441 pM canine NGF): < 1 nM
  SureFire cellular pERK IC50 (128 pM canine NGF): < 1 nM

B5: Mu82 Canine IgG1/k Chimera (antibody, V domains shown)
VH: B4 VH
VL: B4 VL
Recombinant canine β NGF [1]
  TF-1 cell proliferation potency (70 pM canine NGF): < 50 pM

B6: 77.3 Canine IgG1/k (antibody, V domains shown)
VH: EVQLVQSAAEVKKPGASVKVSCKASGFNIKDTYIYWVKQAPGAGLEWIGRIDPANGNTIYASKFQGKASITADTSTNTAYMELSNLRTEDTAVYYCAGYGYYAYWGQGTLVTVSS
VL: DVVLTQTPRSLSVSPGETASISCKSTKSLLNGDGFTYLDWYRQKPGQSPQLLIYLVSNRFSGVPDRFSGSGSGTDFTLRISRVEADDTGLYYCFESNYLFTFGQGTNLEMKR
Recombinant canine β NGF [2]
  IC50, canine NGF-induced TF-1 cell proliferation (70 pM canine NGF): 0.625 nM

B7: 73.2 Canine IgG1/k (antibody, V domains shown)
VH: QVQLVQSAAEVKKPGASVKVSCKASGYTFTNYWMHWVQQAPGAGLEWIGRIDPYGGGTKHNEKFKRRATVTADKSTSTAYMELSNLRTEDTAVYYCTRSGYDYYFDVWGQGTLVTVSS
VL: DIQMTQTPLSLSASPGESASITCRASENIYSFLAWHRQKPGQSPQLLVYNANTLAEGVPSRFSGSGSGTQFTLRISRVEDEDAGLYYCQHHFGTPFTFGQGTKLEIKR
notes: The variable/constant junction was not checked; also called PR-1313520; PR-13113520
Recombinant canine β NGF [2]
  IC50, canine NGF-induced TF-1 cell proliferation (70 pM canine NGF): 0.422 nM
Recombinant canine β NGF [3]
  Kd: 0.042 nM
  koff: 0.00029 s⁻¹
  kon: 6.9e+06 M⁻¹ s⁻¹
Recombinant canine β NGF [4]
  Kd: 0.043 nM
  koff: 0.00029 s⁻¹
  kon: 6.6e+06 M⁻¹ s⁻¹
Recombinant canine β NGF [5]
  Kd: 0.044 nM
  koff: 0.00028 s⁻¹
  kon: 6.3e+06 M⁻¹ s⁻¹

B8: 73.4 Canine IgG1/k (antibody, V domains shown)
VH: B7 VH with Q1E, T28I, T30I, I48M, A68V, V70L, A79V
VL: B7 VL with T22S, V48I
Recombinant canine β NGF [2]
  IC50, canine NGF-induced TF-1 cell proliferation (70 pM canine NGF): 0 nM

B9: PR-1254973 (antibody, mouse IgG2b, V domains shown)
VH: QVQLQQPGAELVKPGASVKLSCKASGYTFTNYWMHWVKQRPGQGLEWIGRIDPYGGGTKHNEKFKRKATVTADKSSSTAYILLSSLTSEDSAVYYCTRSGYDYYFDVWGTGTTVTVSS
VL: DIQMTQSPASLSASVGETVTVTCRASENIYSFLAWHQQKQGKSPQLLVYNANTLAEGVPSRFSGSGSGTQFSLKINSLQPEDFGSYYCQHHFGTPFTFGSGTKLEIKR
Recombinant canine β NGF [1]
  PathHunter IC50 (441 pM canine NGF): < 1 nM
  SureFire cellular pERK IC50 (128 pM canine NGF): < 1 nM

B10: Mu73 Canine IgG1/k Chimera (antibody, V domains shown)
VH: B9 VH
VL: B9 VL
Recombinant canine β NGF [1]
  TF-1 cell proliferation potency (70 pM canine NGF): < 50 pM

B11: 82.4 Canine IgG1/k (antibody, V domains shown)
VH: EVQLQESGPGLVKPSQTLSLTCTVSGGSVTGYNINWIRQRPDRGLEWMGMIWGYGDTDYNSALKSRISITKDNTKSQLFLQLTSTTTEDTAVYYCARDHYGGNDWYFDVWGQGTLVTVSS
VL: DIQMTQTPLSLSASPGESASISCRASQDITNYLNWYRQKPGQSPKLLIYYTSRLHSGVPSRFSGSGSGTDYTLRISRVEDEDAGLYFCQQGKTLPRTFGQGTKLEIKR
notes: The variable/constant junction was not checked; also called PR-1313521; PR-13113521
Recombinant canine β NGF [2]
  IC50, canine NGF-induced TF-1 cell proliferation (70 pM canine NGF): 16 pM
Recombinant canine β NGF [3]
  Kd: 0.0015 nM
  koff: 1.2e-05 s⁻¹
  kon: 7.7e+06 M⁻¹ s⁻¹
Recombinant canine β NGF [4]
  Kd: 0.0014 nM
  koff: 1.2e-05 s⁻¹
  kon: 8.2e+06 M⁻¹ s⁻¹
Recombinant canine β NGF [5]
  Kd: 0.0012 nM
  koff: 1.1e-05 s⁻¹
  kon: 8.6e+06 M⁻¹ s⁻¹

B12: 72.3 Canine IgG1/k (antibody, V domains shown)
VH: EVHLVESGGDLVKPGGSLRLSCVASGFTFSDYYMFWIRQSPGKGLEWVATISDGGSYTYYTDNVKGRFTISRDNANNNLYLQMNSLKAEDTAVYYCAKDWSDSEGFAYWGQGTLVTVSS
VL: DVLMTQTPPSLSVSPREPASISCRSSQSIVQSNGNTYLEWYLQKPGQSPKLLIYKVSNRFSGVPDRFSGSGSGTDFTLRISRVEADDTGVYYCFQGSHVPFTFGAGTKVELKR
Recombinant canine β NGF [2]
  IC50, canine NGF-induced TF-1 cell proliferation (70 pM canine NGF): 0 nM

B13: 72.4 Canine IgG1/k (antibody, V domains shown)
VH: B12 VH with I37V, Q39H, N78T, K87R
VL: B12 VL with V2I, L3V
Recombinant canine β NGF [2]
  IC50, canine NGF-induced TF-1 cell proliferation (70 pM canine NGF): 0 nM

B14: 77.4 Canine IgG1/k (antibody)
heavy: EVQLVQSAAEVKKPGASVKVSCKASGYIFIDTYIYWVKQAPGAGLEWMGRIDPANGNTIYASKFQGRVTLTADTSTNTVYMELSNLRTEDTAVYYCAGYGYYAYWGQGTLVTVSSASTTAPSVFPLAPSCGSTSGSTVALACLVSGYFPEPVTVSWNSGSLTSGVHTFPSVLQSSGLHSLSSMVTVPSSRWPSETFTCNVVHPASNTKVDKPVFNECRCTDTPPCPVPEPLGGPSVLIFPPKPKDILRITRTPEVTCVVLDLGREDPEVQISWFVDGKEVHTAKTQSREQQFNGTYRVVSVLPIEHQDWLTGKEFKCRVNHIDLPSPIERTISKARGRAHKPSVYVLPPSPKELSSSDTVSITCLIKDFYPPDIDVEWQSNGQQEPERKHRMTPPQLDEDGSYFLYSKLSVDKSRWQQGDPFTCAVMHETLQNHYTDLSLSHSPGK
light: DLVLTQTPRSLSVSPGETASISCKSTKSLLNGDGFTYLDWYRQKPGQSPQLLIYLVSNRFSGVPDRFSGSGSGTDFTLRISRVEADDTGLYYCFESNYLFTFSQGTNLEMKRNDAQPAVYLFQPSPDQLHTGSASVVCLLNSFYPKDINVKWKVDGVIQDTGIQESVTEQDKDSTYSLSSTLTMSSTEYLSHELYSCEITHKSLPSTLIKSFQRSECQRVD
Recombinant canine β NGF [2]
  IC50, canine NGF-induced TF-1 cell proliferation (70 pM canine NGF): 0 nM
